Patent publication US20250250357A1 (NANJING ZAIMING PHARMACEUTICAL, published 2025)

T1: human MSLN-R1-his protein (human, UniProt Q13421 296-390)
T1 construct: Self-made in HEK293E cells; also called human MSLN-R1 protein; hMSLN-R1-his; not shown: His tag
T1 chain: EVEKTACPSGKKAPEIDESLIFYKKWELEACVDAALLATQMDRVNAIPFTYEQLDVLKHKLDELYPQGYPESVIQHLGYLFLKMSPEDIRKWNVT


Experiments:
[1] = biological target: T2, human MSLN-R3-3 polypeptide (human); assay: ELISA, coated antigen; antibody 10 nM
T2 construct: also called human MSLN-R3-3 protein; hMSLN-R3-3
Protocol: (§1) The plate was sealed with a plastic film and incubated at 4° C. overnight. The next day, the plate was washed twice with PBST, and a blocking buffer [PBS+2% (w/w) BSA] was added for blocking at room temperature for 2 h. The blocking buffer was discarded, and a chimeric antibody or negative control antibody serially diluted from 100 nM was added at 50 μL/well. After incubation at 37° C. for 2 h, the plate was washed 3 times with PBST. […] After incubation at 37° C. for 2 h, the plate was washed 5 times with PBST. A TMB substrate was added at 50 μL/well for incubation at room temperature for 5-10 min, and then a stop solution (1.0 N HCl) was added at 50 μL/well.

[2] = biological target: T2, human MSLN-R3-3 polypeptide; assay: ELISA, coated antigen; antibody 100 nM
Protocol: as §1

[3] = biological target: T3, human MSLN-R3-his protein (human, UniProt Q13421 487-598); assay: ELISA, coated antigen; antibody 10 nM
T3 construct: also called human MSLN-R3 protein; hMSLN-R3-his; not shown: His tag

[4] = biological target: T2, human MSLN-R3-3 polypeptide; assay: ELISA, coated antigen; no antibody (blank, column 'none')
Protocol: as §1

[5] = biological target: T2, human MSLN-R3-3 polypeptide; assay: ELISA, coated antigen; antibody 0.1 nM
Protocol: as §1

[6] = biological target: T2, human MSLN-R3-3 polypeptide; assay: ELISA, coated antigen; antibody 0.01 nM
Protocol: as §1

[7] = biological target: T2, human MSLN-R3-3 polypeptide; assay: ELISA, coated antigen; antibody 0.0001 nM
Protocol: as §1

[8] = biological target: T3, human MSLN-R3-his protein; assay: ELISA, coated antigen; no antibody (blank, column 'none')
Protocol: as §1

[9] = biological target: T3, human MSLN-R3-his protein; assay: ELISA, coated antigen; antibody 1 nM
Protocol: as §1

[10] = biological target: T3, human MSLN-R3-his protein; assay: ELISA, coated antigen; antibody 0.01 nM
Protocol: as §1

[11] = biological target: T2, human MSLN-R3-3 polypeptide; assay: ELISA, coated antigen; antibody 0.001 nM
Protocol: as §1

[12] = biological target: T3, human MSLN-R3-his protein; assay: ELISA, coated antigen; antibody 0.0001 nM
Protocol: as §1

[13] = biological target: T3, human MSLN-R3-his protein; assay: ELISA, coated antigen; antibody 100 nM
Protocol: as §1

[14] = biological target: T2, human MSLN-R3-3 polypeptide; assay: ELISA, coated antigen; antibody 1 nM
Protocol: as §1

[15] = biological target: T3, human MSLN-R3-his protein; assay: ELISA, coated antigen; antibody 0.1 nM
Protocol: as §1

[16] = biological target: T3, human MSLN-R3-his protein; assay: ELISA, coated antigen; antibody 0.001 nM
Protocol: as §1

[17] = biological target: T1, human MSLN-R1-his protein; assay: ELISA on coated antigen, no antibody (column none)
Protocol: as §1

[18] = biological target: T1, human MSLN-R1-his protein; assay: ELISA on coated antigen, antibody 1 nM
Protocol: as §1

[19] = biological target: T4, human MSLN-FL-his protein (human, UniProt Q13421 296-580); assay: ELISA on coated antigen, antibody 0.01 nM
T4 construct: Self-made in HEK293E cells; also called human MSLN full-length protein; hMSLN-FL-his; not shown: His tag

[20] = biological target: T1, human MSLN-R1-his protein; assay: ELISA on coated antigen, antibody 0.1 nM
Protocol: as §1

[21] = biological target: T4, human MSLN-FL-his protein; assay: ELISA on coated antigen, no antibody (column none)
Protocol: as §1

[22] = biological target: T1, human MSLN-R1-his protein; assay: ELISA on coated antigen, antibody 0.0001 nM
Protocol: as §1

[23] = biological target: T4, human MSLN-FL-his protein; assay: ELISA on coated antigen, antibody 0.0001 nM
Protocol: as §1

[24] = biological target: T4, human MSLN-FL-his protein; assay: ELISA on coated antigen, antibody 1 nM
Protocol: as §1

[25] = biological target: T4, human MSLN-FL-his protein; assay: ELISA on coated antigen, antibody 0.1 nM
Protocol: as §1

[26] = biological target: T4, human MSLN-FL-his protein; assay: ELISA on coated antigen, antibody 100 nM
Protocol: as §1

[27] = biological target: T1, human MSLN-R1-his protein; assay: ELISA on coated antigen, antibody 0.001 nM
Protocol: as §1

[28] = biological target: T1, human MSLN-R1-his protein; assay: ELISA on coated antigen, antibody 100 nM
Protocol: as §1

[29] = biological target: T4, human MSLN-FL-his protein; assay: ELISA on coated antigen, antibody 10 nM
Protocol: as §1

[30] = biological target: T4, human MSLN-FL-his protein; assay: ELISA on coated antigen, antibody 0.001 nM
Protocol: as §1

[31] = biological target: T1, human MSLN-R1-his protein; assay: ELISA on coated antigen, antibody 0.01 nM
Protocol: as §1

[32] = biological target: T1, human MSLN-R1-his protein; assay: ELISA on coated antigen, antibody 10 nM
Protocol: as §1

T3 sequence (Q13421 495-606): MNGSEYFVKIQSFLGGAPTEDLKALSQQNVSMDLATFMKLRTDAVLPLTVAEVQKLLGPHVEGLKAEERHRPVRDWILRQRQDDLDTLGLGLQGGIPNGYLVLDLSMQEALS

OD450 [1] [OD450] | OD450 [2] [OD450] | OD450 [3] [OD450] | OD450 [4] [OD450] | OD450 [17] [OD450] | OD450 [18] [OD450] | OD450 [19] [OD450] | OD450 [20] [OD450] | OD450 [21] [OD450] | OD450 [22] [OD450] | OD450 [23] [OD450] | OD450 [24] [OD450] | OD450 [25] [OD450] | OD450 [26] [OD450] | OD450 [27] [OD450] | OD450 [28] [OD450] | OD450 [29] [OD450] | OD450 [30] [OD450] | OD450 [31] [OD450] | OD450 [32] [OD450] | Binder | further results
2.01 | 2.33 | 1.95 | 0.09 | – | – | – | – | – | – | – | – | – | – | – | – | – | – | – | – | S009-F3.23.1 (antibody, human IgG1, kappa, V domains shown, Human-murine chimeric antibody, human IgG1/kappa constant regions) VH: QVQLQQSGADLVRPGASVTLSCKASGYTFTDYEMHWVKQTPVHGLEWIGAIDPETGDTVYNQNFKGKAILTADKSSSTAYMELRSLTSEDSAVYYCTRYGYDWGWGQGTTLTVSS VL: not shown | OD450 [5]: 1.54 OD450; OD450 [6]: 0.57 OD450; OD450 [7]: 0.09 OD450; OD450 [8]: 0.1 OD450; OD450 [9]: 1.77 OD450; OD450 [10]: 0.48 OD450; OD450 [11]: 0.18 OD450; OD450 [12]: 0.08 OD450; OD450 [13]: 2.31 OD450; OD450 [14]: 1.87 OD450; OD450 [15]: 1.51 OD450; OD450 [16]: 0.12 OD450
– | – | – | – | 0.07 | 0.06 | 0.63 | 0.06 | 0.08 | 0.07 | 0.07 | 1.93 | 1.68 | 2.58 | 0.07 | 0.07 | 2.06 | 0.14 | 0.07 | 0.06 | S009-F3.51.8 (antibody, human IgG1, kappa, V domains shown, Human-murine chimeric antibody on human IgG1/kappa constant regions) VH: QVQLQQSGAELVRPGASVTLSCKASGYTFTDYEMHWVKQTPVHGLEWIGGFDPETGGTAHNQKFKGKAILTADKSSSTAYMELRSLTSEDSAVYYCSNYGSIWGDCWGQGTSVTVSS VL: not shown | –
1.92 | 2.04 | 1.91 | 0.07 | – | – | – | – | – | – | – | – | – | – | – | – | – | – | – | – | S009-F3.51.8 (antibody, human IgG1, kappa, V domains shown, Human-murine chimeric antibody, human IgG1/kappa constant regions) VH: QVQLQQSGAELVRPGASVTLSCKASGYTFTDYEMHWVKQTPVHGLEWIGGFDPETGGTAHNQKFKGKAILTADKSSSTAYMELRSLTSEDSAVYYCSNYGSIWGDCWGQGTSVTVSS VL: not shown | OD450 [5]: 1.42 OD450; OD450 [6]: 0.51 OD450; OD450 [7]: 0.09 OD450; OD450 [8]: 0.09 OD450; OD450 [9]: 1.83 OD450; OD450 [10]: 0.41 OD450; OD450 [11]: 0.13 OD450; OD450 [12]: 0.09 OD450; OD450 [13]: 2.18 OD450; OD450 [14]: 1.8 OD450; OD450 [15]: 1.55 OD450; OD450 [16]: 0.12 OD450
– | – | – | – | 0.07 | 0.07 | 0.42 | 0.06 | 0.08 | 0.06 | 0.07 | 1.88 | 1.59 | 2.17 | 0.06 | 0.11 | 1.97 | 0.11 | 0.06 | 0.08 | S009-F3.74.20 (antibody, human IgG1, kappa, V domains shown, Human-murine chimeric antibody: murine VH/VL on human IgG1 heavy and kappa light constant regions) VH: RVQLQQSGAELVRPGASVTLSCKASGYTFTDSEMHWVKQTPVHGLEWIGAIDPEIDGTAYNQNFRDKAILTADKSSSTAYMELRSLTSEDSAVYYCTTYFGSGYGYFDVWGTGTTVTVSS VL: DVVMTQTPLSLSVSLGDQASISCRSSQSLVYSNGNTYLHWFLQKPGQSPKLLIYKVSNRFSGVPDRFSGSGSGTDFTLKINRVEAEDLGVYFCSQSTHIPFTFGAGTKLELKR | –
– | – | – | – | 0.06 | 0.05 | 0.69 | 0.06 | 0.07 | 0.06 | 0.07 | 1.97 | 1.71 | 2.31 | 0.06 | 0.07 | 1.99 | 0.14 | 0.06 | 0.06 | S009-F3.80.22 (antibody, human IgG1, kappa, V domains shown, Human-murine chimeric antibody: murine VH/VL on human IgG1 heavy and kappa light constant regions) VH: QVQLQQSGAELVRPGASVTLSCKASGYTFTDYEIHWVKQTPVHGLEWIGAFDPEIGGSAYNQKFKDRATLTADKSSSTAYMELHSLTAEDSAVYYCTDYYGSSSGYFDVWGTGTTVTVSS VL: DVVMTQTPLSLPVSLGDQASISCRSSQSLEHNNGNTYLHWFLHKPGQSPKLLIYKVSNRFSGVPDRFSGSGSGTDFTLKISRVEAEDLGVYFCSQSTHVPFTFGSGTKLEIKR | –
– | – | – | – | 0.06 | 0.06 | 0.62 | 0.05 | 0.06 | 0.05 | 0.06 | 1.99 | 1.72 | 2.76 | 0.05 | 0.09 | 2.15 | 0.14 | 0.05 | 0.07 | S009-F3-63.5 (antibody, human IgG1, kappa, V domains shown, Human-murine chimeric antibody: murine VH/VL on human IgG1 heavy and kappa light constant regions) VH: QVQLQQSGAELVRPGASVTLSCKASGYTFTDYEMHWVKQTPVHGLEWIGGIDPETGDTAYNQQFKGKAILTADRSSSTAYMELRSLTSEDSAVYYCTNYASSREDYWGQGTTLTVSS VL: not shown | –
0.08 | 0.11 | 0.07 | 0.07 | – | – | – | – | – | – | – | – | – | – | – | – | – | – | – | – | S009-F3.45.21 (antibody, human IgG1, kappa, V domains shown, Human-murine chimeric antibody, human IgG1/kappa constant regions) VH: DVQLQESGPGLVKPSQSLSLTCSVTGDSITSGYYWNWIRQFPGNKLEWMGFIRFDGTNNYNPSLKNRISITRDTSKNQFFLKLNSVTTEDTATYYCAREGSYAPAWFAYWGQGTLVTVSA VL: QIVLTQSPAIMSASPGEKVTMTCSASSSLSYMYWYQQKPGSSPRLLIYDTSNLASGVPVRFSGSGSGTSYSLTISRMEAEDAATYYCQQWSSYPPTFGGGTKLEIKR | OD450 [5]: 0.08 OD450; OD450 [6]: 0.07 OD450; OD450 [7]: 0.1 OD450; OD450 [8]: 0.09 OD450; OD450 [9]: 0.05 OD450; OD450 [10]: 0.07 OD450; OD450 [11]: 0.25 OD450; OD450 [12]: 0.09 OD450; OD450 [13]: 0.09 OD450; OD450 [14]: 0.07 OD450; OD450 [15]: 0.06 OD450; OD450 [16]: 0.24 OD450
